Laboratory results from a protein production outcome set (Wang et al. 2014).

Assay: label from the status in PepcDB records
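Also: failed if final PepcDB status was selected cloned or expressed and not failed if soluble or beyond.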

| Sequence | protein production |
| --- | --- |
| MIAAPFLGLLLGLAALLLLASPWPFLAPLVVVGLFGLALLYRRPGWGLLGICALVPFEGLFKDSAFSGAKLLGASLILIMLFKLLLRQIPDSRLRSNLWRALGPFLLCLLLSMLYSENLLVSLDSLRELAVGLVLFFVTLLIAREVNLLMLCRLLAVSVAITCVIALVSAKYQVGGRAIGLLQDANYFALLIAMAVPPAIFLALRSPHWPVRLFWVGISLTLMAGMTKTDSRSGLLVVLFTIAIGVWHYRDRLKGLRPKHLGFAMFAVAIVIPLGIAVLPAEYVARIQSLSMLKSGAHSADTSLGRRTSYLVVGGQMIRQNPLLGSGLGTFPIHYAQTGFASSFSENMNEPDLFRRAHNTYLELFSELGIPGGLSFVALMLMGLRNFERARQGFLARGQREQADIATHLGLSLLAMAVFLLFLSAPNHKYLWIFLALSSVLRLQAEDAPVPRPAPA | failed |
| MIRLILILINILFCHYLYALDCQKRLFDISINEKLSIQESLDELAKYCSFSIIVKDKIAKEKLETLQNSVNIHQMSLDEIFNFFIKEHDLSYDFDGKILRISGINTKIFKISYITSIREGQSITKASVDAKPRQSEYSGSFDDAEDNMIKSMEKFDFWQNIEKEIIVLLKNSHEDYEAKTPIINPNAGLIIVTGTNSQLKSVKNYLQKLENRLKKQVIIDVSILAVSLNESHSSGINWQNFNIGLNSQVNNENSFIQFQNGQGFVKNLGLRANLNFDSIINFLSQNGKTSVLSNPKLMALNNQQAIISVGDTINYQVKESSKGTENGTTVSESYNNYSIFVGILLNILPEISDDGKIMLRINPSLSDFKYPEDNKRQKEPRTIAPDTIQKKLSSVVQVENNQTLILGGLISHDKSNEKNSINFLSKIPILGSLFKGEVLNSKATEIVFIITPSIVDSVNAPSLKDLGFKHYELEHHHHHH | failed |
| MVTDKSKKAKTEEENVEQIDAELVLSIEKLQEIQDDLEKINEKASDEVLEVEQKYNVIRKPVYDKRNEIIKTIPDFWLTAFLSHPALGELLTEEDQKIFKYLSSLDVEDAKDVKSGYSITFSFNPNPFFEDGKLTKTFTFLEEGTTKITATPIKWKEGKGLANGVNHEKNGNKRALPEESFFTWFSDAQHKEDVEDEMQDEVADIIKEDLWPNPLTYFNNDADEEDFDGDDDGDEEEKEGDSDEDDDEEDEVGEE | failed |
| MKTLKVYIPGIKFPSISVTGNYCALNCAHCGRHYLEGMKKITRLNLVDKCVEMEKEGYVGCLLSGGMDSRLKVPLDKFKDEIREIKEKTRLKINAHVGFIDEDDLEWLKYIDVVSLDFVGDNEVIKRVYKIDKTVNDYLKILDILTKERIKVAPHITIGLDFGRIHWEYEAIDLLSEYPIDVLVLNILIPTPGTEMENVKVSMEEALNVVRYAREEFKGELSIGCMRPFGRWREEFDKRAILIGVDRITNPPRKVIEWAKQFRKVEIHFECCVI | failed |
| MREHHHNLRHYTLYAATIITITTLVRFWFVASGQLDLVQDEAQYWDWTRRLQLSYYSKGPLIAWLIGMWTGVFGDTELGVRFGALAGSALAQVMLFLGVGRLFGRPRLALLTLGVANTTPLFMVAGVLMTTDGPLLLCWLGALLCIHAATRTPRATAPYLLLAMCMAVGVLAKYMMLAVAAIACLHMWLLHRQRLLPQGVALRVVCACLAGAACGMLPILLWNAQNDWVGFKHVGTLAGVTGKASKAFLRLDRLPEHLGAQLGVATPWWLLLMLGMAWRSLRIAWTGVVPPGEPAEAAGREEAVRQSSLLFCAFMPLWGVITLWSLHTRIYPNWPAMSYVGGIILAAAGVERLLDGLGAPRWRRLVPLWFTLGACLFAAAHFQNTLPLPASLNPAARLKGWEDLGRELDRVRHGLPHPDRVFFFSDAYDITAELAFYVPGKPFTFCADFGRRMSQYDLWPSPADKVGWDAVFVRRDGTSVPRELLEMFDSAELYRYQSTHHGAPGRVFTVIVLRGFNGEWPRRSFRSF | failed |
| DDLIFYKGVDGRYLGANKAFCDFFGKESMEGLSDADILDAEQLRLTQKSDEEVVRFRKNIRLEYGGGHPLRGRFFFSITKSPILLRGKVVGILGIARD | failed |
| MQTLIIVAHPELARSNTQPFFKAAIENFSNVTWHPLVADFNVEQEQSLLLQNDRIILEFPLYWYSAPALLKQWMDTVMTTKFATGHQYALEGKELGIVVSTGDNGNAFQAGAAEKFTISELMRPFEAFANKTKMMYLPILAVHQFLYLEPDAQQRLLVAYQQYATNVGAGHFKDLEHHHHHH | not failed |
| MGFIGSGSIGGTIARLAVAAGHQVVLSNSRGPGSLADTVAELGPRASAATSEEAAAAGDIVVVTVPVTAFPDLPAAPLAGKTVIDTCNYGPERDGHIPELDGTSLTSSELLLRYVPGAMLVKGFNNIYFKHLLSLARPAGATDRSYLPIAGDLAPAKAAATEFIDSIGYGVVDAGLLADSWRQATGTPVWGTPYGPPSNEMGRPTGPGAIRAALATATR | failed |
| MELRDRIDFLCKTILAIKTAGRLVLGIDGLSRSGKTTLANQLSQTLREQGISVCVFHMDDHIVERAKRYHTGNEEWFEYYYLQWDVEWLTHQLFRQLKASHQLTLPFYDHETDTHSKRTVYLSDSDMIMIEGVFLQRKEWRPFFDFVVYLDCPREIRFARENDQVKQNIQKFINRYWKAEDYYLETEEPIKRADVVFDMTS | not failed |
| MAEAVERTDELVREYLLFRGFTHTLRQLDAEIKADKEKGFRVDKIVDQLQQLMQVYDLAALRDYWSYLERRLFSRLEDIYRPTINKLKTSLFRFYLVYTIQTNRNDKAQEFFAKQATELQNQAEWKDWFVLPFLPSPDTNPTFATYFSRQWADTFIISLHNFLSVLFQCMPVPVILNFDAECQRTNQVQEENEVLRQKLFALQAEIHRLKKEEQQQEEEAAALVQHKLPPYVSSMDRLGDSELALVCSQRPASLSQSPRVGFLSSLLPQSKKSPSRLSPAQGPPQAQSSAKKDSFSSQATKGKDSVPGAKDGKSLLSGPVPGEASWTHQRQRRLQDHGKERRELLSTSSSQSQCAERKPEVSGAEAEPCLELHMGPVEVLARVSTAGSEGDRPEQPFIVLSQEEYGEHHSSIMHCRVDCSGRRVASLDVDGVIKVWSFNPIMQTKASSISKSPLLSLEWATKRDRLLLLGSGVGTVRLYDTEAKKNLCEININDDMPRILSLACSPNGASFVCSAAAPSLTSQTDSSAPDIGSKGMNQVPGKLLLWDTKTMKQQLQFSLDPEPIAINCTAFNHNGNLLVTGAADGVIRLFDMQQHECAMSWKAHCGEVYSVEFSCDENAVYSIGEDRKFIQWNIHKSGLKVSESNLPSDATGPFVLSGYSGYKQVQVPRGRLFAFDSEGNYMLTCSATGGLIYKLGSEEKVLENCLSLGGHRAPVVTVDWSTAMDCGTCLTASMDGKIKLTTLLAHKL | failed |
| MLKKLLLVSTVLLLSACSSRQYSESSLTQSKIDIYEQTQNYVALSDLYKAELKKEDSEEIREALAAALLHLEDPESALFYLKPNIENGASFQSYYLQASALGDLGKYPQAIKAALLSLEENPDNPETENLLGILYGHEYQYEKSRRYFQKAQLHFYDSNTIANNLAVLDIAEGNYKRAAQRLLPVYRSGQANEQVMANLILSMAKEQNLEFIQAVLGDKHTKKEIERIYQSLQRFNSLDIDTKKSV | failed |
| MSLQRLLQHSSNGNLADFCAGPAYSSYSTLTGSLTMDDNRRIQMLADTVATLPRGRKQLALTRSSSLSDFSWSQRKLVTVEKQDNETFGFEIQSYRPQNQNACSSEMFTLICKIQEDSPAHCAGLQAGDVLANINGVSTEGFTYKQVVDLIRSSGNLLTIETLNGTMILKRTELEAKLQVLKQTLKQKWVEYRSLQLQEHRLLHGDAANCPSLENMDLDELSLFGPLPGPGPALVDRNRLSSESSCKSWLSSMTMDSEDGYQTCVSEDSSRGAFSRQTSTDDECFIPKEGDDFLRRSSSRRNRSISNTSSGSMSPLWEGNLSSMFGTLPRKSRKGSVRKQLLKFIPGLHRAVEEEESRF | not failed |
| MLMRTTRKISITDYGVYYYKTCRSIFDLLHESAEVASNVIHNPEGVLNISMPRSFGIFGFLPTLEKFYRIHPKIRVDVSISDSLVDFSENRFDAAVRLGVLSDSSLVARPLRPYKLVLCASPAYLARKGRPATPKDLIVHDCIATYFDEYRTAWNTLQNTWEFLCADGEFIKVSVPARMQVNDAQGVCIMVLSGQGIALLPEIIVSAHLTEGRLIELLPDYQIPSRPMSLVYRKNSLMPFKLKAFIGFLMDEFS | failed |
| MDAREWAMLIALSLLWGGSFFFIGVAVKELPPVTIVTLRVSLAAVALLVVCRIMGLRLPREWAVWRAFFGMGLLNNIIPFCLIVWGQTQIASGLASILNATTPLFTVIVAHFLTADEKMTGNKLAGVLIGFVGVATMIGPAAFGGSSGLWGQIAILGAAISYSFAGIFGRRFKAMGVPPLMTATGQISSSTLMLIPAALLIDKPWTLAMPGLGTWGALIGIALLSTALAYLIFFRILASAGATNLALVTFLIPVSAILLGSLILGEQLEIKHFAGMAMIAAGLAAIDGRLPVKLRSLLRNAPA | failed |
| MLYDLTVVQFSKMLKNLNAIFDKAEAFAELKKVDMDVLLNSRLAADQFNLIRQVQIACDTAKVGVARLTGQLETAPKHDDSETTLAELRQRIASVLTYLEGFSEADFANAATIQISQPRWQGKYLTGYEFAIEHAIPNLYFHITTAYGILRHNGVEVGKKDYLGAMPYKAPIL | not failed |
| MKRLFIASLLAFAPFTWALDQAGSQRLSDLQQRWAQIQYQMPKDKRADAFEKLAGDAATFVRQYPGTPEPLIWEGIINSSWAGATGGLGALGKVKAAKASLEQAMKLDPAALQGSAYTSLGTLYDQVPGWPIGFGDAEMADKMLRKALQINPNGIDSNYFWADHLYRQKRYPEATAALQKALQAPPRPGRELADQGRRADIDALLKTIKDKQD | failed |
| MSLNGNGSIELKGTVEEVWSKLMDPSILSKCIMGCKSLELIGEDKYKADLQIGIAAVKGKYDAIIEVTDIKPPYHYKLLVNGEGGPGFVNAEGVIDLTPINDECTQLTYTYSAEVGGKVAAIGQRMLGGVAKLLISDFFKKIQKEIAKSKQEASEGHHHHHH | not failed |
| MNRDLPVLRALRSLPDKVVGEALVSNDAISMRYDVDASTGKVVRPSHDLYGQSISGKVLIFKNTKGGVATGWALLNLKSRGTAPIALVCDTTNPVFVQGAALAGLPIMDGFRESPRSAVRTGDVVELDGISGELKVLRRGAGGQLEHHHHHH | failed |
| MTIKRVGILGAGKVGIVLAGLALKAGYEVRISGSGSVDKIDLTISTLVPGAIASENAEVVANSDIIILAIPLSRYKNIDPTLLKGKLVIDAMNYWWETDGIREEVLDPTLTSSEQVQNYFKDSTIVKTFNHMGYHNLQEEALPKGDPKRKALFVTGDNHAAVDEVTKFVDSMGFDQVVHYKLTDGIMTEPGSPLFGASLKYQELKQIIDNFDHTDFGRKISSTLNLEHHHHHH | not failed |
| MADKTGTPHPLTEPGVWIERIGGRVFPPHLPALFLDRDGTINVDTDYPSDPAEIVLRPQMLPAIATANRAGIPVVVVTNQSGIARGYFGWSAFAAVNGRVLELLREEGVFVDMVLACAYHEAGVGPLAIPDHPMRKPNPGMLVEAGKRLALDLQRSLIVGDKLADMQAGKRAGLAQGWLVDGEAAVQPGFAIRPLRDSSELGDLLAAIETLGRDNRS | not failed |
| MITRLTDIELEQIRGVIFDLDGTLAHSNPDFKGLRAALGIGSGTDILEHIHSLETTVAKMQALEIVHDYELESSRQASWIEGAQALIAFLKTRQLPLAILTRNMPEAAKITIEKLGIDIPLVLTRYDAEPKPHPQGIYLICEQWQLNPADILYVGDYLFDLQTAQNAGSRCALYCPEDVPDYAQAADLLVSCYHSLIQAWPK | failed |
| SLTSKNQFYKPGMLVPVFSAAGLLKNGRYQFLLQQIETLSLLPTEQYAQLYEALVYRFVEFVQVLPIRLDEPLCSLMNEGLLRGVNSLNHYIQNHPEATPLERYALFSAGLLLEVAHAVVNQKIFITDEEGNFIKQWNPFSGPLIDDVETKHYKIMPLSSYYQRNIPSITPILVRQLLPDEGFLWLTSDMRVFSDWMQALRDDEGEGGGRFEHVLQLFKHKNIDGLFNTLPALPVNLQDSPATAHADAFLNWLKEALATNQIKVNTSDAGVHVIPEGVFLEKTGIFKQYIDLHVNVPVNLFTVYQQFGNLFGLTKLSGIDYRFEQLFSEYPDALKRKSKMGFAGLIGIRRASPTREGVLIADPNLIFTRGEIPSATSYLKLSSAQKSQNIPMT | not failed |
